Data on two molecules can be found in publication PMC3437054.

In series [1] the target is PCNA (Saccharomyces cerevisiae) (UniProt P15873). To be noted: cited from earlier work.
Series [2] addresses Replication factor C (RFC-A/B/C/D/E) (Saccharomyces cerevisiae, UniProt P38630;P40339;P38629;P40348;P38251 1-861;1-323;1-340;1-353;1-354). Briefly: stopped-flow TAMRA fluorescence.
In series [3] the target is Replication factor C (RFC-A/B/C/D/E);PCNA (wild type) (Saccharomyces cerevisiae;Saccharomyces …, UniProt P38630;P40339;P38629;P40348;P38251;P15873 1-861;1-323;1-340;1-353;1-354;1-258, |). Briefly: fluorescence intensity.

A word on the Kd: it is a measure of binding affinity in units of concentration. For RFC (from UniProt P38630), in series [1], the dissociation constant (Kd) was 1 nM.

B1: 40/65-nt ptDNA-TAMRA (mixed)
DNA 1: ATTTCCTTCAGCAGATAGGAACCATACTGATTCACATGGC
DNA 2: TAGTTAGAACCTAAGCATATTAGTAGCCATGTGAATCAGTATGGTTCCTATCTGCTGAAGGAAAT
modifications: 3' amino linker on primer
In the case of B1, the binding result in series [2] was “binds”. For the same molecule, binding in series [3] was put at a Kd of 1 nM.
